The values below come from patent publication US5985836A, “Alpha-1 proteinase inhibitor binding peptides” (Bayer Corporation, priority 1998, dated 1999).

Assay [1] deals with T1, A1PI (Homo sapiens, UniProt P01009).
T1 construct: Human plasma is currently the only approved source of therapeutic AlPI
Nature of the assay: A1PI binding on peptide-resin column, injection of 1 mg A1PI in equilibration buffer. The settings on record: VIFLVR point mutations, 1 mg A1PI. As to the method: Confirmatory binding assays were performed in a column chromatographic format on a microbore HPLC using individual peptide sequences synthesized directly onto the Toyopearl 650 M Chelate resin which had been modified with Totda followed by an alanine residue (A-Totda-Toyopearl), at a final substitution density of 0.1 mmole/g resin. The resin was packed into 0.4×5 cm columns (Thomson, Springfield, Va.) and tested on the Michrom HPLC system (Michrom BioResources, Auburn, Calif.). The elution program for all trials utilized the following method. The column was pre-equilibrated with equilibration buffer (as above). 1 ml of sample was injected and allowed sufficient time to flowthrough the column using equilibration buffer. The column was then washed with step elutions of 1M NaCl and 3M NaCl in equilibration buffer. The column was exposed to equilibration buffer with 0.1M NaCl. Any remaining protein was eluted with elution buffer (2% by volume glacial acetic acid in water).
A Gilson FC204 fraction collector at the HPLC outlet collected individual eluates for further analysis. Fractions collected from the 2% acetic acid eluates were neutralized with 2M Tris, pH 10.5 to bring the pH to neutrality. The protein samples were reconstituted in equilibration buffer unless otherwise stated. The samples were analyzed by the integration of the absorbance at 280 nm or by immunonephelometry. The specific method of determination is presented for each figure.
Tables 2 and 3 present the elution profiles for 19 sequences based on the injection of 1 mg AlPI in equilibration buffer at 4° C. and 20° C., respectively. The columns were run at a constant flow rate of865 μl/min (413 cm/hr) or 523 μl/min (250 cm/hr). No dependence of the elution profile with flow rate was found. The Percent AlPI Eluted by Fraction represents the amount eluted in the flowthrough, 1M NaCl wash, and 2% acetic acid fractions relative to the total AlPI eluted. The percentages are based on either the integration of the peak areas at […]

In assay [2] the target is T1, A1PI. In words: Purification of A1PI from Effluent II+III on peptide column, A1PI mass balance. It is filed as binding. The settings on record: Table 13, 1 ml Eff. II+III, 4° C.; for Mass A1PI per Eluate Fraction, 1M NaCl / Mass A1PI per Eluate Fraction, 2% Acetic Acid / Mass A1PI per Eluate Fraction, Flowthrough: * Below detection limit; for Percent Eluted by Fraction, 1M NaCl / Percent Eluted by Fraction, 2% Acetic Acid / Percent Eluted by Fraction, Flowthrough: A1PI. The method, then: Sequences 1-11 and 15 were assayed with Effluent II+III (Eff. II+III). Eff. II+III is a process intermediate in the Cohn plasma fractionation process. The feed stream contains 20% (by volume) ethanol, 20-25 mg/ml hSA and approximately 1 mg/ml AlPI. The stream also contains other proteins including anti-thrombin III (AT3), immunoglobin G (IgG), immunoglobin A (IgA), apolipoprotein alpha-1 (Apo A-1), transferrin (Trf), haptoglobin (Hpt), and alpha-1 acid glycoprotein (AAG) at concentrations ranging from 0.1-1 mg/ml.
The columns were assayed using the same technique as the hSA+AlPI experiments, allowing for a 10 minute residence time followed by a constant flow rate of 865 μl/min with step elutions of 1M NaCl, 3M NaCl, and 2% acetic acid. All experiments were conducted at 4° C. The mass balances for the injection of 1 ml Eff. […] The AlPI was enriched from 3% of the total protein in the feed to upwards of 50% in the acid eluate.

T1 sequence (P01009 25-418): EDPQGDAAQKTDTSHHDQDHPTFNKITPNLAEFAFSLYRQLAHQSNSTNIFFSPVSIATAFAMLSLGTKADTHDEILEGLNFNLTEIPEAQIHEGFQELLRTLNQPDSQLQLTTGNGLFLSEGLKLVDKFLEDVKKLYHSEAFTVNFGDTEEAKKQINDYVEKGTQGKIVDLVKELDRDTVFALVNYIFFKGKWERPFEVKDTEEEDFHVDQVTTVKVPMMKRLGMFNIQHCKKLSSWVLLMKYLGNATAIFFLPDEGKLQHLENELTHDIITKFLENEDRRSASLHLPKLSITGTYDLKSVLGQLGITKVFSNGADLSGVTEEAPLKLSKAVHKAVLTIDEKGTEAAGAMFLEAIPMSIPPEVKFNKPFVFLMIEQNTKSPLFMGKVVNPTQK

Regarding “A I F L V R: point mutation of VIFLVR, position 1 (AIFLVR)”, in the assay with A1PI [1] (4° C.), the “% of Total A1PI Eluted by Fraction (Based on Absorbance at 280 nm), 1M NaCl” value (“% of Total A1PI Eluted by Fraction … 1M NaCl” for short) is listed as 4%; the “% of Total A1PI Eluted by Fraction (Based on Absorbance at 280 nm), 2% Acetic Acid” value stood at 96%; the “% of Total A1PI Eluted by Fraction (Based on Absorbance at 280 nm), Flowthrough” value (shortened to “% of Total A1PI Eluted by Fraction … Flowthrough”) is listed as 0%. Further, in the assay with A1PI [1] (20° C.), the “% of Total A1PI Eluted by Fraction … 1M NaCl” value came to 3%; the “% of Total A1PI Eluted by Fraction (Based on Absorbance at 280 nm), 2% Acetic Acid” value is on record as 92%; the “% of Total A1PI Eluted by Fraction … Flowthrough” value came to 5%. Besides, in the assay with A1PI [2], the “Mass A1PI per Eluate Fraction, 1M NaCl” value is reported as 0.07 mg; the “Mass A1PI per Eluate Fraction, 2% Acetic Acid” value was determined as 0.59 mg; the “Mass A1PI per Eluate Fraction, Flowthrough” value came out at 0.33 mg; the “Percent Eluted by Fraction, 1M NaCl” value was 7%. For the same substance, in the assay with A1PI [2], the “Percent Eluted by Fraction, 2% Acetic Acid” value was 60% and the “Percent Eluted by Fraction, Flowthrough” value is reported as 33%.

Consider “H I F L V R: point mutation of VIFLVR, position 1 (HIFLVR)”, for which, in the assay with A1PI [1] (4° C.), the “% of Total A1PI Eluted by Fraction … 1M NaCl” value came to 3%; the “% of Total A1PI Eluted by Fraction (Based on Absorbance at 280 nm), 2% Acetic Acid” value was 97%; the “% of Total A1PI Eluted by Fraction … Flowthrough” value amounted to 0%. Also, in the assay with A1PI [1] (20° C.), the “% of Total A1PI Eluted by Fraction … 1M NaCl” value is given as 7%; the “% of Total A1PI Eluted by Fraction (Based on Absorbance at 280 nm), 2% Acetic Acid” value is 93%; the “% of Total A1PI Eluted by Fraction … Flowthrough” value is reported as 0%. In the assay with A1PI [2], the “Mass A1PI per Eluate Fraction, 1M NaCl” value amounted to 0.08 mg; the “Mass A1PI per Eluate Fraction, 2% Acetic Acid” value worked out at 0.54 mg; the “Mass A1PI per Eluate Fraction, Flowthrough” value is 0.16 mg; the “Percent Eluted by Fraction, 1M NaCl” value was determined as 10%. Further, in the assay with A1PI [2], the “Percent Eluted by Fraction, 2% Acetic Acid” value turned out to be 69% and the “Percent Eluted by Fraction, Flowthrough” value is reported as 21%.

“K I F L V R: point mutation of VIFLVR, position 1 (KIFLVR)”: in the assay with A1PI [1] (4° C.), the “% of Total A1PI Eluted by Fraction … 1M NaCl” value was 3%; the “% of Total A1PI Eluted by Fraction (Based on Absorbance at 280 nm), 2% Acetic Acid” value amounted to 97%; the “% of Total A1PI Eluted by Fraction … Flowthrough” value was 0%. Moreover, in the assay with A1PI [1] (20° C.), the “% of Total A1PI Eluted by Fraction … 1M NaCl” value was 0%; the “% of Total A1PI Eluted by Fraction (Based on Absorbance at 280 nm), 2% Acetic Acid” value worked out at 100%; the “% of Total A1PI Eluted by Fraction … Flowthrough” value is reported as 0%. Further, in the assay with A1PI [2], the “Mass A1PI per Eluate Fraction, 1M NaCl” value stood at 0.03 mg; the “Mass A1PI per Eluate Fraction, 2% Acetic Acid” value turned out to be 0.51 mg; the “Mass A1PI per Eluate Fraction, Flowthrough” value is recorded as 0.32 mg; the “Percent Eluted by Fraction, 1M NaCl” value is 3%. Besides, in the assay with A1PI [2], the “Percent Eluted by Fraction, 2% Acetic Acid” value stood at 59% and the “Percent Eluted by Fraction, Flowthrough” value was determined as 38%.
